Assays:
[1] = tested on: 3×MBT domain of L3MBTL1; test: SILAC proteomic pull-down 3×MBT vs 3×MBTD355N from 293T nuclear extract, LC-MS/MS; format: binding, human; conditions: SILAC ratio, 293T nuclear extract pull-down; * = protein identified in only one labeling experiment
Experimental: Protein pull-downs were performed as described above using 600 μg of nuclear extract prepared with isotopic labels as indicated. After eluting with glutathione, 3×MBT domain was removed by dialysis into high salt and rebinding to GSH-sepharose. Bound proteins were separated by SDS-PAGE and analyzed by in-gel tryptic digest followed by LC-MS/MS. Peptides were identified using MaxQuant version 1.2.2.5 (Cox and Mann (2008) Nat. Biotechnol. 26, 1367-1372) and candidate methylated peptides were verified by manual inspection.
For stable isotope labeling by amino acids in cell culture (SILAC) experiments HEK 293T cells were grown for at least six doublings in DMEM for SILAC supplemented with 10% dialyzed fetal bovine serum (FBS), 230 mg/L L-proline and either 100 mg/L each of L-lysine and L-arginine (“light” medium), D4-L-lysine and ^13C6-L-arginine (“medium” media), or ^13C6^15N2-L-lysine and ^13C6^15N4-L-arginine (Thermo Scientific). Heavy methyl labeling used DMEM without L-Methionine or L-Cysteine supplemented with D3^13C-L-Methionine (Sigma), L-Cysteine (Sigma) and 10% dialyzed FBS.
600 μg of nuclear extract was incubated overnight rotating at 4° C. with 20 μl packed 3×MBT or 3×MBTD355N beads in a total volume of 250 μL with binding buffer. Supernatant was removed and saved for use as a loading control. Beads were washed 4×5 minutes with 0.5 mL binding buffer. Protein was eluted by incubating in 20 μL elution buffer (10 mg/mL glutathione in 50 mM Tris pH 8.0) rotating at 4° C. for four hours. Elutions from 3×MBT and 3×MBTD355N were combined and dialyzed overnight at 4° C. against 10,000× volume of dissociation buffer (50 mM Tris pH 7.5, 750 mM NaCl) in a 0.1 mL Slide-A-Lyzer MINI Dialysis Device with 3.5K molecular weight cutoff (Thermo Scientific). 80 μL of GSH-Sepharose was prepared by washing briefly three times with 0.5 mL binding buffer. Dialyzed proteins were added to the GSH-Sepharose and incubated 4 hours rotating at 4° C. to deplete the GST-fusion domains. Supernatant was transferred to a fresh 1.5 mL tube. Proteins were separated by SDS-PAGE on a 10% polyacrylamide gel and stained using SilverQuest Silver Staining Kit (Life Technologies). Lanes were excised, residual 3×MBT band was removed, and gel was diced into 0.5 mm cubes. Gel pieces were destained and processed by in-gel digestion (Carlson et al. (2011) Science Signaling 4) with sequencing grade trypsin (Promega) and the peptide sample was dried completely in a vacuum centrifuge. To prepare a loading control, 2 μL each of light and heavy nuclear extract were combined, 6 μL of 8M urea was added, proteins were denatured by adding 2 μL of 100 mM dithiothreitol in digest buffer (50 mM ammonium bicarbonate) and heating to 60° C. for 1 hour, cysteine was alkylated by adding 2.2 μL 100 mg/mL iodoacetamide in digest buffer and incubating 1 hour at room temperature in darkness, and proteins were digested by adding 80 μL trypsin (Promega) at 12.5 ng/μL in digest buffer and incubating overnight at room temperature in darkness. Digestion was stopped by adding 10 μL of 10% formic acid.
Each experiment consisted of two sets of pull-downs: “forward” labeling with 3×MBT incubated with light nuclear extract and 3×MBTD355N with medium extract, and a second “reverse” labeling experiment with the label conditions swapped. Proteins were included in the results if they were quantified in both labeling directions. To determine reproducibility the entire experiment including the label swap was duplicated using independent protein preparations and a mass spectrometer at another institution.
For 3×MBT pull-down experiment #1 the gel lane was processed and peptides were loaded off-line onto a first dimension trap column (Waters Xbridge, C18, 10 μm particle size, 100 Å pore size, 5 cm packing length, 150 μm column i.d.). […]

[2] = target: T1, G9a (Homo sapiens, UniProt Q96KQ7); test: In vitro methylation reaction with 3H-SAM, autoradiograph; format: biochemical; conditions: recombinant SIRT1, recombinant G9a SET domain
T1 construct: in vitro methylation assays on SIRT1 and SIRT1K622R using recombinant G9a SET domain
Experimental: Recombinant GST-SIRT1 was expressed by baculoviral transduction of the Sf9 insect cell line as previously described (Levy et al. (2011) Nat. Immunol. 12, 29-36). A panel of enzymes was tested for ability to methylate recombinant SIRT1 using ^3H-SAM in in vitro methylation reactions (Kuo et al. (2011) Mol. Cell 44, 609-620). SIRT1K622R was generated by site-directed mutagenesis (Stratagene). For the pull-down experiment, 293T cells were transfected with a 10:1 enzyme:substrate DNA ratio. 150 μg of nuclear proteins were used for pull-downs with 3×MBT or 3×MBTD355N coupled GSH-Sepharose as described above.

T1 sequence (Q96KQ7 1038-1155 limits assumed, species assumed): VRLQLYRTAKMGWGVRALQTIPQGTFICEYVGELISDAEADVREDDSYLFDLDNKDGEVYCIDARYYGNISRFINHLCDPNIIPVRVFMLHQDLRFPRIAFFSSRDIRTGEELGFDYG

Row | Molecule | Protein Ratio 3xMBT/D355N [1] | in vitro methylation by G9a [2]
1 | FAM50A: protein with methylated lysine identified in 3xMBT pull-down (protein, UniProt Q14320 2-339, looked up, methylated lysine, protein with methylated lysine identified in 3xMBT pull-down) Protein FAM50A: AQYKGAASEAGRAMHLMKKREKQREQMEQMKQRIAEENIMKSNIDKKFSAHYDAVEAELKSSTVGLVTLNDMKAKQEALVKEREKQLAKKEQSKELQMKLEKLREKERKKEAKRKISSLSFTLEEEEEGGEEEEEAAMYEEEMEREEITTKKRKLGKNPDVDTSFLPDRDREEEENRLREELRQEWEAKQEKIKSEEIEITFSYWDGSGHRRTVKMRKGNTMQQFLQKALEILRKDFSELRSAGVEQLMYIKEDLIIPHHHSFYDFIVTKARGKSGPLFNFDVHDDVRLLSDATVEKDESHAGKVVLRSWYEKNKHIFPASRWEPYDPEKKWDKYTIR | 3.7* | 
2 | SIRT1: NAD-dependent lysine deactylase SIRT1 (protein, UniProt Q96EB6 2-747, looked up, GST or 3xFlag tag) NAD-dependent protein …: ADEAALALQPGGSPSAAGADREAASSPAGEPLRKRPRRDGPGLERSPGEPGGAAPEREVPAAARGCPGAAAAALWREAEAEAAAAGGEQEAQATAAAGEGDNGPGLQGPSREPPLADNLYDEDDDDEGEEEEEAAAAAIGYRDNLLFGDEIITNGFHSCESDEEDRASHASSSDWTPRPRIGPYTFVQQHLMIGTDPRTILKDLLPETIPPPELDDMTLWQIVINILSEPPKRKKRKDINTIEDAVKLLQECKKIIVLTGAGVSVSCGIPDFRSRDGIYARLAVDFPDLPDPQAMFDIEYFRKDPRPFFKFAKEIYPGQFQPSLCHKFIALSDKEGKLLRNYTQNIDTLEQVAGIQRIIQCHGSFATASCLICKYKVDCEAVRGDIFNQVVPRCPRCPADEPLAIMKPEIVFFGENLPEQFHRAMKYDKDEVDLLIVIGSSLKVRPVALIPSSIPHEVPQILINREPLPHLHFDVELLGDCDVIINELCHRLGGEYAKLCCNPVKLSEITEKPPRTQKELAYLSELPPTPLHVSEDSSSPERTSPPDSSVIVTLLDQAAKSNDDLDVSESKGCMEEKPQEVQTSRNVESIAEQMENPDLKNVGSSTGEKNERTSVAGTVRKCWPNRVAKEQISRRLDGNQYLFLPPNRYIFHGAEVYSDSEDDVLSSSSCGSNSDSGTCQSPSLEEPMEDESEIEEFYNGLEDEPDVPERAGGAGFGTDGDDQEAINEAISVKQEVTDMNYPSNKS |  | methylates the NAD-dependent lysine deactylase SIRT1 at lysine 622
3 | eEF1A2: protein with methylated lysine identified in 3xMBT pull-down (protein, UniProt Q05639 2-463, looked up) Elongation factor 1-alpha 2: GKEKTHINIVVIGHVDSGKSTTTGHLIYKCGGIDKRTIEKFEKEAAEMGKGSFKYAWVLDKLKAERERGITIDISLWKFETTKYYITIIDAPGHRDFIKNMITGTSQADCAVLIVAAGVGEFEAGISKNGQTREHALLAYTLGVKQLIVGVNKMDSTEPAYSEKRYDEIVKEVSAYIKKIGYNPATVPFVPISGWHGDNMLEPSPNMPWFKGWKVERKEGNASGVSLLEALDTILPPTRPTDKPLRLPLQDVYKIGGIGTVPVGRVETGILRPGMVVTFAPVNITTEVKSVEMHHEALSEALPGDNVGFNVKNVSVKDIRRGNVCGDSKSDPPQEAAQFTSQVIILNHPGQISAGYSPVIDCHTAHIACKFAELKEKIDRRSGKKLEDNPKSLKSGDAAIVEMVPGKPMCVESFSQYPPLGRFAVRDMRQTVAVGVIKNVEKKSGGAGKVTKSAQKAQKAGK | 1.5 | 
4 | hnRNP D: protein with methylated lysine identified in 3xMBT pull-down (protein, UniProt Q14103 2-355, looked up) Heterogeneous nuclear …: SEEQFGGDGAAAAATAAVGGSAGEQEGAMVAATQGAAAAAGSGAGTGGGTASGGTEGGSAESEGAKIDASKNEEDEGHSNSSPRHSEAATAQREEWKMFIGGLSWDTTKKDLKDYFSKFGEVVDCTLKLDPITGRSRGFGFVLFKESESVDKVMDQKEHKLNGKVIDPKRAKAMKTKEPVKKIFVGGLSPDTPEEKIREYFGGFGEVESIELPMDNKTNKRRGFCFITFKEEEPVKKIMEKKYHNVGLSKCEIKVAMSKEQYQQQQQWGSRGGFAGRARGRGGGPSQNWNQGYSNYWNQGYGNYGYNSQGYGGYGGYDYTGYNNYYGYGDYSNQQSGYGKVSRRGGHQNSYKPY | 22.5 | 
5 | TUBB4: protein with methylated lysine identified in 3xMBT pull-down (protein, UniProt P04350 1-444, looked up) Tubulin beta-4A chain: MREIVHLQAGQCGNQIGAKFWEVISDEHGIDPTGTYHGDSDLQLERINVYYNEATGGNYVPRAVLVDLEPGTMDSVRSGPFGQIFRPDNFVFGQSGAGNNWAKGHYTEGAELVDAVLDVVRKEAESCDCLQGFQLTHSLGGGTGSGMGTLLISKIREEFPDRIMNTFSVVPSPKVSDTVVEPYNATLSVHQLVENTDETYCIDNEALYDICFRTLKLTTPTYGDLNHLVSATMSGVTTCLRFPGQLNADLRKLAVNMVPFPRLHFFMPGFAPLTSRGSQQYRALTVPELTQQMFDAKNMMAACDPRHGRYLTVAAVFRGRMSMKEVDEQMLSVQSKNSSYFVEWIPNNVKTAVCDIPPRGLKMAATFIGNSTAIQELFKRISEQFTAMFRRKAFLHWYTGEGMDEMEFTEAESNMNDLVSEYQQYQDATAEEGEFEEEAEEEVA | 1.9 | 
